Source: US20110091994A1, “Methods for Screening Compounds for Treating and/or Preventing an Hepatitis C Virus Infection” (priority 2008, published 2011)
Where two headings read alike, the source gives them in different places.

Assays:
[1] = tested on: HCV ORFs (Gal4-DB fusions); assay type: binding, HCV genotype 1b, isolate con1; conditions: human protein listed by gene symbol; the value names the HCV protein it interacts with
[2] = target: T1, HCV ORFs (Gal4-DB fusions) (Hepatitis C virus genotype 1b, UniProt Q9WMX2); assay type: binding, HCV genotype 1b, isolate con1; conditions: human protein as prey
T1 construct: expressed in transfected cells; host or cells: Saccharomyces cerevisiae MAV203 (IMAP1) / AH109 (IMAP2)

HCV proteins = target: T2, HCV proteins (Hepatitis C virus genotype 1b, UniProt Q9WMX2); test: Validation by Y2H pairwise matrices; assay type: binding;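 further: yeast two-hybrid pairwise tests of interactions first found in Y2H screens of HCV bait proteins against human cDNA libraries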
T2 construct: expressed in transfected cells

[3] = validation of interaction with HCV protein NS3
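Wherever IMAP Y2H IMAP1 (number of IST) is given: yeast two-hybrid screens using HCV genotype 1b proteins fused to Gal4-DB as baits against prey cDNA libraries from human spleen and foetal brain, IMAP1 via transformation and IMAP2 via mating.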
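Wherever IMAP Y2H IMAP2 (number of IST) is given: yeast two-hybrid screens using HCV genotype 1b proteins fused to Gal4-DB as baits against prey cDNA libraries from human spleen and foetal brain, IMAP1 via transformation and IMAP2 via mating.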
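Wherever Interaction with viral protein is given: yeast two-hybrid screens using HCV genotype 1b proteins fused to Gal4-DB as baits against prey cDNA libraries from human spleen and foetal brain, IMAP1 via transformation and IMAP2 via mating.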

B1: LDB1 (protein, UniProt Q86U70 2-411, looked up)
LIM domain-binding protein 1: SVGCACPGCSSKSFKLYSPKEPPNGNAFPPFHPGTMLDRDVGPTPMYPPTYLEPGIGRHTPYGNQTDYRIFELNKRLQNWTEECDNLWWDAFTTEFFEDDAMLTITFCLEDGPKRYTIGRTLIPRYFRSIFEGGATELYYVLKHPKEAFHSNFVSLDCDQGSMVTQHGKPMFTQVCVEGRLYLEFMFDDMMRIKTWHFSIRQHRELIPRSILAMHAQDPQMLDQLSKNITRCGLSNSTLNYLRLCVILEPMQELMSRHKTYSLSPRDCLKTCLFQKWQRMVAPPAEPTRQQPSKRRKRKMSGGSTMSSGGGNTNNSNSKKKSPASTFALSSQVPDVMVVGEPTLMGGEFGDEDERLITRLENTQFDAANGIDDEDSFNNSPALGANSPWNSKPPSSQESKSENPTSQASQ
[1]
  Interaction with viral protein: NS3
[2]; HCV protein NS3 as bait
  IMAP Y2H IMAP1 (number of IST): 1
HCV proteins; [3]
  Y2H matrices: +

B2: KIF17 (protein, UniProt Q9P2E2 1-1029, looked up)
Kinesin-like protein KIF17: MASEAVKVVVRCRPMNQRERELRCQPVVTVDCARAQCCIQNPGAADEPPKQFTFDGAYHVDHVTEQIYNEIAYPLVEGVTEGYNGTIFAYGQTGSGKSFTMQGLPDPPSQRGIIPRAFEHVFESVQCAENTKFLVRASYLEIYNEDVRDLLGADTKQKLELKEHPEKGVYVKGLSMHTVHSVAQCEHIMETGWKNRSVGYTLMNKDSSRSHSIFTISIEMSAVDERGKDHLRAGKLNLVDLAGSERQSKTGATGERLKEATKINLSLSALGNVISALVDGRCKHVPYRDSKLTRLLQDSLGGNTKTLMVACLSPADNNYDETLSTLRYANRAKNIRNKPRINEDPKDALLREYQEEIKKLKAILTQQMSPSSLSALLSRQVPPDPVQVEEKLLPQPVIQHDVEAEKQLIREEYEERLARLKADYKAEQESRARLEEDITAMRNSYDVRLSTLEENLRKETEAVLQVGVLYKAEVMSRAEFASSAEYPPAFQYETVVKPKVFSTTDTLPSDDVSKTQVSSRFAELPKVEPSKSEISLGSSESSSLEETSVSEAFPGPEEPSNVEVSMPTEESRSRYFLDECLGQEAAGHLLGEQNYLPQEEPQEVPLQGLLGLQDPFAEVEAKLARLSSTVARTDAPQADVPKVPVQVPAPTDLLEPSDARPEAEAADDFPPRPEVDLASEVALEVVRTAEPGVWLEAQAPVALVAQPEPLPATAGVKRESVGMEVAVLTDDPLPVVDQQQVLARLQLLEQQVVGGEQAKNKDLKEKHKRRKRYADERRKQLVAALQNSDEDSGDWVLLNVYDSIQEEVRAKSKLLEKMQRKLRAAEVEIKDLQSEFQLEKIDYLATIRRQERDSMLLQQLLEQVQPLIRRDCNYSNLEKILRESCWDEDNGFWKIPHPVITKTSLPVAVSTGPQNKPARKTSAADNGEPNMEDDRYRLMLSRSNSENIASNYFRSKRASQILSTDARKSLTHHNSPPGLSCPLSNNSAIPPTQAPEMPQPRPFRLESLDIPFTKAKRKKSKSNFGSEPL
[1]
  Interaction with viral protein: NS3
[2]; HCV protein NS3 as bait
  IMAP Y2H IMAP1 (number of IST): 2
HCV proteins; [3]
  Y2H matrices: +

B3: LRRCC1 (protein, UniProt Q9C099 1-1032, looked up)
Leucine-rich repeat and …: MEAAAAVVAAEAEVENEDGDSSCGDVCFMDKGLQSISELSLDSTLHAVNLHCNNISKIEAIDHIWNLQHLDLSSNQISRIEGLNTLTKLCTLNLSCNLITKVEGLEELINLTRLNVSYNHIDDLSGLIPLHGIKHKLRYIDLHSNRIDSIHHLLQCMVGLHFLTNLILEKDGDDNPVCRLPGYRAVILQTLPQLRILDCKNIFGEPVNLTEINSSQLQCLEGLLDNLVSSDSPLNISEDEIIDRMPVITAPIDELVPLEQFASTPSDAVLTSFMSVCQSSEPEKNNHENDLQNEIKLQKLDDQILQLLNETSNSIDNVLEKDPRPKRDTDITSESDYGNRKECNRKVPRRSKIPYDAKTIQTIKHHNKNYNSFVSCNRKMKPPYLKELYVSSSLANCPMLQESEKPKTEIIKVDQSHSEDNTYQSLVEQLDQEREKRWRAEQAENKLMDYIDELHKHANEKEDIHSLALLTTDRLKEIIFRERNSKGQLEVMVHKLQNEIKKLTVELMKAKDQQEDHLKHLRTLEKTLEKMERQKRQQQAAQIRLIQEVELKASAADREIYLLRTSLHREREQAQQLHQLLALKEQEHRKELETREFFTDADFQDALAKEIAKEEKKHEQMIKEYQEKIDVLSQQYMDLENEFRIALTVEARRFQDVKDGFENVATELAKSKHALIWAQRKENESSSLIKDLTCMVKEQKTKLAEVSKLKQETAANLQNQINTLEILIEDDKQKSIQIELLKHEKVQLISELAAKESLIFGLRTERKVWGHELAQQGSSLAQNRGKLEAQIESLSRENECLRKTNESDSDALRIKCKIIDDQTETIRKLKDCLQEKDEHIKRLQEKITEIEKCTQEQLDEKSSQLDEVLEKLERHNERKEKLKQQLKGKEVELEEIRKAYSTLNRKWHDKGELLCHLETQVKEVKEKFENKEKKLKAERDKSIELQKNAMEKLHSMDDAFKRQVDAIVEAHQAEIAQLANEKQKCIDSANLKVHQIEKEMRELLEETCKNKKTMEAKIKQLAFALNEIQQDM
[1]
  Interaction with viral protein: NS3
[2]; HCV protein NS3 as bait
  IMAP Y2H IMAP1 (number of IST): 1
HCV proteins; [3]
  Y2H matrices: +

B4: L3MBTL3 (protein, UniProt Q96JM7 1-780, looked up)
Lethal(3)malignant brain …: MTESASSTSGQEFDVFSVMDWKDGVGTLPGSDLKFRVNEFGALEVITDENEMENVKKATATTTWMVPTAQEAPTSPPSSRPVFPPAYWTSPPGCPTVFSEKTGMPFRLKDPVKVEGLQFCENCCQYGNVDECLSGGNYCSQNCARHIKDKDQKEERDVEEDNEEEDPKCSRKKKPKLSLKADTKEDGEERDDEMENKQDVRILRGSQRARRKRRGDSAVLKQGLPPKGKKAWCWASYLEEEKAVAVPAKLFKEHQSFPYNKNGFKVGMKLEGVDPEHQSVYCVLTVAEVCGYRIKLHFDGYSDCYDFWVNADALDIHPVGWCEKTGHKLHPPKGYKEEEFNWQTYLKTCKAQAAPKSLFENQNITVIPSGFRVGMKLEAVDKKNPSFICVATVTDMVDNRFLVHFDNWDESYDYWCEASSPHIHPVGWCKEHRRTLITPPGYPNVKHFSWDKYLEETNSLPAPARAFKVKPPHGFQKKMKLEVVDKRNPMFIRVATVADTDDHRVKVHFDGWNNCYDYWIDADSPDIHPVGWCSKTGHPLQPPLSPLELMEASEHGGCSTPGCKGIGHFKRARHLGPHSAANCPYSEINLNKDRIFPDRLSGEMPPASPSFPRNKRTDANESSSSPEIRDQHADDVKEDFEERTESEMRTSHEARGAREEPTVQQAQRRSAVFLSFKSPIPCLPLRWEQQSKLLPTVAGIPASKVSKWSTDEVSEFIQSLPGCEEHGKVFKDEQIDGEAFLLMTQTDIVKIMSIKLGPALKIFNSILMFKAAEKNSHNEL
[1]
  Interaction with viral protein: NS3
[2]; HCV protein NS3 as bait
  IMAP Y2H IMAP1 (number of IST): 4
  IMAP Y2H IMAP2 (number of IST): 8
HCV proteins; [3]
  Y2H matrices: +

B5: LPXN (protein, UniProt O60711 1-386, looked up)
Leupaxin: MEELDALLEELERSTLQDSDEYSNPAPLPLDQHSRKETNLDETSEILSIQDNTSPLPAQLVYTTNIQELNVYSEAQEPKESPPPSKTSAAAQLDELMAHLTEMQAKVAVRADAGKKHLPDKQDHKASLDSMLGGLEQELQDLGIATVPKGHCASCQKPIAGKVIHALGQSWHPEHFVCTHCKEEIGSSPFFERSGLAYCPNDYHQLFSPRCAYCAAPILDKVLTAMNQTWHPEHFFCSHCGEVFGAEGFHEKDKKPYCRKDFLAMFSPKCGGCNRPVLENYLSAMDTVWHPECFVCGDCFTSFSTGSFFELDGRPFCELHYHHRRGTLCHGCGQPITGRCISAMGYKFHPEHFVCAFCLTQLSKGIFREQNDKTYCQPCFNKLFPL
[1]
  Interaction with viral protein: CORE
[2]; HCV protein CORE as bait
  IMAP Y2H IMAP1 (number of IST): 1
HCV proteins; validation of interaction with HCV protein CORE
  Y2H matrices: +

B6: KIF7 (protein, UniProt Q2M1P5 1-1343, looked up)
Kinesin-like protein KIF7: MGLEAQRLPGAEEAPVRVALRVRPLLPKELLHGHQSCLQVEPGLGRVTLGRDRHFGFHVVLAEDAGQEAVYQACVQPLLEAFFEGFNATVFAYGQTGSGKTYTMGEASVASLLEDEQGIVPRAMAEAFKLIDENDLLDCLVHVSYLEVYKEEFRDLLEVGTASRDIQLREDERGNVVLCGVKEVDVEGLDEVLSLLEMGNAARHTGATHLNHLSSRSHTVFTVTLEQRGRAPSRLPRPAPGQLLVSKFHFVDLAGSERVLKTGSTGERLKESIQINSSLLALGNVISALGDPQRRGSHIPYRDSKITRILKDSLGGNAKTVMIACVSPSSSDFDETLNTLNYASRAQNIRNRATVNWRPEAERPPEETASGARGPPRHRSETRIIHRGRRAPGPATASAAAAMRLGAECARYRACTDAAYSLLRELQAEPGLPGAAARKVRDWLCAVEGERSALSSASGPDSGIESASVEDQAAQGAGGRKEDEGAQQLLTLQNQVARLEEENRDFLAALEDAMEQYKLQSDRLREQQEEMVELRLRLELVRPGWGGPRLLNGLPPGSFVPRPHTAPLGGAHAHVLGMVPPACLPGDEVGSEQRGEQVTNGREAGAELLTEVNRLGSGSSAASEEEEEEEEPPRRTLHLRRNRISNCSQRAGARPGSLPERKGPELCLEELDAAIPGSRAVGGSKARVQARQVPPATASEWRLAQAQQKIRELAINIRMKEELIGELVRTGKAAQALNRQHSQRIRELEQEAEQVRAELSEGQRQLRELEGKELQDAGERSRLQEFRRRVAAAQSQVQVLKEKKQATERLVSLSAQSEKRLQELERNVQLMRQQQGQLQRRLREETEQKRRLEAEMSKRQHRVKELELKHEQQQKILKIKTEEIAAFQRKRRSGSNGSVVSLEQQQKIEEQKKWLDQEMEKVLQQRRALEELGEELHKREAILAKKEALMQEKTGLESKRLRSSQALNEDIVRVSSRLEHLEKELSEKSGQLRQGSAQSQQQIRGEIDSLRQEKDSLLKQRLEIDGKLRQGSLLSPEEERTLFQLDEAIEALDAAIEYKNEAITCRQRVLRASASLLSQCEMNLMAKLSYLSSSETRALLCKYFDKVVTLREEQHQQQIAFSELEMQLEEQQRLVYWLEVALERQRLEMDRQLTLQQKEHEQNMQLLLQQSRDHLGEGLADSRRQYEARIQALEKELGRYMWINQELKQKLGGVNAVGHSRGGEKRSLCSEGRQAPGNEDELHLAPELLWLSPLTEGAPRTREETRDLVHAPLPLTWKRSSLCGEEQGSPEELRQREAAEPLVGRVLPVGEAGLPWNFGPLSKPRRELRRASPGMIDVRKNPL
[1]
  Interaction with viral protein: NS3
[2]; HCV protein NS3 as bait
  IMAP Y2H IMAP1 (number of IST): 1
HCV proteins; [3]
  Y2H matrices: +
